Values quoted from earlier work as cited in paper PMC2288786 (BMC Structural Biology, 2008).

Target: CaM
Settings: previously observed for full-length MBP; ref [18],[21]
Description: Background The myelin sheath is a multilamellar membrane structure wrapped around the axon, enabling the saltatory conduction of nerve impulses in vertebrates. […] In this study, we focus on a 19-mer synthetic peptide from the predicted calmodulin-binding segment near the C-terminus of human myelin basic protein. […] The binding of the ...

- Kd in words: low μM range
B1: full-length myelin basic protein: full-length myelin basic protein of earlier studies (protein, UniProt P02686 1-304, looked up)
chain: MGNHAGKRELNAEKASTNSETNRGESEKKRNLGELSRTTSEDNEVFGEADANQNNGTSSQDTAVTDSKRTADPKNAWQDAHPADPGSRPHLIRLFSRDAPGREDNTFKDRPSESDELQTIQEDSAATSESLDVMASQKRPSQRHGSKYLATASTMDHARHGFLPRHRDTGILDSIGRFFGGDRGAPKRGSGKDSHHPARTAHYGSLPQKSHGRTQDENPVVHFFKNIVTPRTPPPSQGKGRGLSLSRFSWGAEGQRPGFGYGGRASDYKSAHKGFKGVDAQGTLSKIFKLGGRDSRSGSPMARR
modifications: full-length
notes: full-length myelin basic protein of earlier studies
